Target: GFP-tagged Y822F vinculin (chicken), expressed in 4T1 vinculin-knockout cells (chicken) (UniProt P12003)
Test: co-IP; GFP or GFP-tagged vinculins immunoprecipitated with GFP antibody and protein A/G agarose from lysates of 4T1 vinculin-knockout cells (EB or RIPA buffer), reducing SDS-PAGE, immunoblot for talin, paxillin or β-actin; in one panel cells pre-treated with 10 mM NAC for 1 h (paxillin with Y822C reduced, not significantly changed with wild type and Y822F)

Sequence of UniProt P12003 (P12003 whole entry Y822F): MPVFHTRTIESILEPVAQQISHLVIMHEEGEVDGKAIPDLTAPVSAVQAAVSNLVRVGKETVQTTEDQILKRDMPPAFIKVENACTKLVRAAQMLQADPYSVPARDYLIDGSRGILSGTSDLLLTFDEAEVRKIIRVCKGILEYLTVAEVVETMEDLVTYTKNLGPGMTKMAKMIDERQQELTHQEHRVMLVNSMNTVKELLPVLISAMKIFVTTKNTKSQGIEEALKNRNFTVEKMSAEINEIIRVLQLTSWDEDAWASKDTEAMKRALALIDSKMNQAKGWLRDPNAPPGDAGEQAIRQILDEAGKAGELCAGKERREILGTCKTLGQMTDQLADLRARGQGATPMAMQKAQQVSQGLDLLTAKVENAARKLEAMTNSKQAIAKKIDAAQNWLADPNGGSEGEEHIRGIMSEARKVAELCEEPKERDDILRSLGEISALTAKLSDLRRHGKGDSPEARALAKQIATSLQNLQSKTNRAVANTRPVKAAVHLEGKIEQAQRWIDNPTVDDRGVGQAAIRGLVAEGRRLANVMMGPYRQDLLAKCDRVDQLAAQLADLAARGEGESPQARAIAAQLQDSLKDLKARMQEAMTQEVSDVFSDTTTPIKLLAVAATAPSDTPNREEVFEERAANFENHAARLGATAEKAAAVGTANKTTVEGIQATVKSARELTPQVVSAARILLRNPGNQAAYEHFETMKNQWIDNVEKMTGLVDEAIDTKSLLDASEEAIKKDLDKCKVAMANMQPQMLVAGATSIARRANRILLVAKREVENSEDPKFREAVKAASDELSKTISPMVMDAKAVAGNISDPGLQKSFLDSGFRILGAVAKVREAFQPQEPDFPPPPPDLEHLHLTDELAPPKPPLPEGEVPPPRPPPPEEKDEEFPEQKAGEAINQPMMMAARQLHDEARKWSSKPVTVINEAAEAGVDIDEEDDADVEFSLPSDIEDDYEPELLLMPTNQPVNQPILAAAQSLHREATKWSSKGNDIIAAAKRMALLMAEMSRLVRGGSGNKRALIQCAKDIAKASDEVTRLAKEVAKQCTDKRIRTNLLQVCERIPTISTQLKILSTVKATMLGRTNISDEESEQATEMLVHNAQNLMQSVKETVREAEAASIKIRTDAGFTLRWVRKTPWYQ

fold less talin recovered than with T12 vinculin: 390 fold
Substance: talin (endogenous in 4T1 cells; the paper's 'talin' refers collectively to talin 1 and 2) (from UniProt P26039 1-2541) (natural protein)
